What was measured:
[1] = target: human CD33 R202A (human, UniProt P20138 18-364); test: alanine scan, flow cytometry;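 also: HEK293-T cells transiently expressing single-residue alanine mutants of CD33 (alanine swapped to serine), antibody binding read by fluorescence in duplicate, background-subtracted, expressed relative to wild-type CD33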
Procedure: (§1) An alanine scan on human CD33 was performed to the determine the residues on CD33 that are involved in binding to the antibodies investigated. […] Briefly, a mutation library of CD33 was created by high-throughput, site-directed mutagenesis. Each residue was individually mutated to alanine, with alanine codons mutated to serine. The mutant library was arrayed in 384-well microplates and transiently transfected into HEK293-T. Following transfection, cells were incubated with the indicated antibodies (IgG or Fab) at concentrations pre-determined using an independent immunofluorescence titration curve on wild type CD33. […] Binding of each antibody to each mutant clone was determined in duplicates. For each point, background fluorescence was subtracted from the raw data, which were then normalized to antibody reactivity with wild type CD33.
(§2) Critical residues for antibody binding (outlined in dark grey) were residues whose mutations led to a binding of the test Abs of less than 20%. Additional secondary residues (outlined in light grey) were identified that led to a binding of the test Abs of between 20 and 40% as compared to the wild type CD33.

[2] = target: human CD33 Q204A (human, UniProt P20138 18-364); test: alanine scan, flow cytometry;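 also: HEK293-T cells transiently expressing single-residue alanine mutants of CD33 (alanine swapped to serine), antibody binding read by fluorescence in duplicate, background-subtracted, expressed relative to wild-type CD33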
Chain of human CD33 Q204A (P20138 18-364 Q204A limits assumed): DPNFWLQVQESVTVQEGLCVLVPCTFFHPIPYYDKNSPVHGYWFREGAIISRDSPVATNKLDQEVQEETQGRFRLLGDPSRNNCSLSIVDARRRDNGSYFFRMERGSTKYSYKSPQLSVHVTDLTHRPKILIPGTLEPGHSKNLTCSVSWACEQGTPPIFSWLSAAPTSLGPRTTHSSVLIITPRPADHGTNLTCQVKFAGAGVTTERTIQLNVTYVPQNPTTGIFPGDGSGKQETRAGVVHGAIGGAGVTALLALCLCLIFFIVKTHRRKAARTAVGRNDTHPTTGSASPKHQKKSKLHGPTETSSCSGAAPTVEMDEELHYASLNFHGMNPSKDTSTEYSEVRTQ
Procedure: as §1, §2

[3] = target: human CD33 G207A (human, UniProt P20138 18-364); test: alanine scan, flow cytometry;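 also: HEK293-T cells transiently expressing single-residue alanine mutants of CD33 (alanine swapped to serine), antibody binding read by fluorescence in duplicate, background-subtracted, expressed relative to wild-type CD33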
Procedure: as §1, §2

[4] = target: human CD33 Q213A (human, UniProt P20138 18-364); test: alanine scan, flow cytometry;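 also: HEK293-T cells transiently expressing single-residue alanine mutants of CD33 (alanine swapped to serine), antibody binding read by fluorescence in duplicate, background-subtracted, expressed relative to wild-type CD33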
Procedure: as §1, §2

[5] = target: human CD33 K215A (human, UniProt P20138 18-364); test: alanine scan, flow cytometry
Procedure: as §1, §2

[6] = target: human CD33 A219S (human, UniProt P20138 18-364); test: alanine scan, flow cytometry
Procedure: as §1, §2

[7] = target: human CD33 G220A (human, UniProt P20138 18-364); test: alanine scan, flow cytometry
Chain of human CD33 G220A (P20138 18-364 G220A limits assumed): as the sequence (P20138 18-364 Q204A limits assumed) above, with A187Q, G203A counted along it
Procedure: as §1, §2

[8] = target: human CD33 V221A (human, UniProt P20138 18-364); test: alanine scan, flow cytometry
Procedure: as §1, §2

[9] = target: human CD33 T222A (human, UniProt P20138 18-364); test: alanine scan, flow cytometry
Procedure: as §1, §2

[10] = target: human CD33 P238A (human, UniProt P20138 18-364); test: alanine scan, flow cytometry
Chain of human CD33 P238A (P20138 18-364 P238A limits assumed): as the sequence (P20138 18-364 Q204A limits assumed) above, with A187Q, P221A counted along it
Procedure: as §1, §2

[11] = target: human CD33 G249A (human, UniProt P20138 18-364); test: alanine scan, flow cytometry
Chain of human CD33 G249A (P20138 18-364 G249A limits assumed): as the sequence (P20138 18-364 Q204A limits assumed) above, with A187Q, G232A counted along it
Procedure: as §1, §2

[12] = target: human CD33 H259A (human, UniProt P20138 18-364); test: alanine scan, flow cytometry
Procedure: as §1, §2

[13] = target: human CD33 T268A (human, UniProt P20138 18-364); test: alanine scan, flow cytometry
Chain of human CD33 T268A (P20138 18-364 T268A limits assumed): as the sequence (P20138 18-364 Q204A limits assumed) above, with A187Q, T251A counted along it
Procedure: as §1, §2

[14] = target: human CD33 L270A (human, UniProt P20138 18-364); test: alanine scan, flow cytometry
Procedure: as §1, §2

[15] = target: human CD33 I199A (human, UniProt P20138 18-364); test: alanine scan, flow cytometry
Procedure: as §1, §2

[16] = target: human CD33 F43L (human, UniProt P20138 18-364); test: flow cytometry on transfected cells, IgG
Procedure: as §1
(§3) Antibodies were screened for binding to the human CD33 variants in IgG format. […] For each mutation, background fluorescence was subtracted from the raw data, which were then normalized to antibody reactivity with wild-type CD33.

[17] = target: human CD33 F44S (human, UniProt P20138 18-364); test: flow cytometry on transfected cells, IgG
Procedure: as §1, §3

[18] = target: human CD33 F44V (human, UniProt P20138 18-364); test: flow cytometry on transfected cells, IgG
Procedure: as §1, §3

[19] = target: human CD33 F44I (human, UniProt P20138 18-364); test: flow cytometry on transfected cells, IgG
Procedure: as §1, §3

[20] = target: human CD33 F44Q (human, UniProt P20138 18-364); test: flow cytometry on transfected cells, IgG
Chain of human CD33 F44Q (P20138 18-364 F44Q limits assumed): as the sequence (P20138 18-364 Q204A limits assumed) above, with F27Q, A187Q counted along it
Procedure: as §1, §3

[21] = target: human CD33 F44E (human, UniProt P20138 18-364); test: flow cytometry on transfected cells, IgG
Chain of human CD33 F44E (P20138 18-364 F44E limits assumed): as the sequence (P20138 18-364 Q204A limits assumed) above, with F27E, A187Q counted along it
Procedure: as §1, §3

[22] = target: human CD33 P46F (human, UniProt P20138 18-364); test: flow cytometry on transfected cells, IgG
Chain of human CD33 P46F (P20138 18-364 P46F limits assumed): as the sequence (P20138 18-364 Q204A limits assumed) above, with P29F, A187Q counted along it
Procedure: as §1, §3

[23] = target: human CD33 I47S (human, UniProt P20138 18-364); test: flow cytometry on transfected cells, IgG
Procedure: as §1, §3

[24] = target: human CD33 I47V (human, UniProt P20138 18-364); test: flow cytometry on transfected cells, IgG
Procedure: as §1, §3

[25] = target: human CD33 I47Q (human, UniProt P20138 18-364); test: flow cytometry on transfected cells, IgG
Chain of human CD33 I47Q (P20138 18-364 I47Q limits assumed): as the sequence (P20138 18-364 Q204A limits assumed) above, with I30Q, A187Q counted along it
Procedure: as §1, §3

[26] = target: human CD33 I47P (human, UniProt P20138 18-364); test: flow cytometry on transfected cells, IgG
Procedure: as §1, §3

[27] = target: human CD33 P48V (human, UniProt P20138 18-364); test: flow cytometry on transfected cells, IgG
Procedure: as §1, §3

[28] = target: human CD33 P48M (human, UniProt P20138 18-364); test: flow cytometry on transfected cells, IgG
Procedure: as §1, §3

[29] = target: human CD33 P48W (human, UniProt P20138 18-364); test: flow cytometry on transfected cells, IgG
Chain of human CD33 P48W (P20138 18-364 P48W limits assumed): as the sequence (P20138 18-364 Q204A limits assumed) above, with P31W, A187Q counted along it
Procedure: as §1, §3

[30] = target: human CD33 P48N (human, UniProt P20138 18-364); test: flow cytometry on transfected cells, IgG
Chain of human CD33 P48N (P20138 18-364 P48N limits assumed): as the sequence (P20138 18-364 Q204A limits assumed) above, with P31N, A187Q counted along it
Procedure: as §1, §3

[31] = target: human CD33 P48K (human, UniProt P20138 18-364); test: flow cytometry on transfected cells, IgG
Procedure: as §1, §3

[32] = target: human CD33 P48S (human, UniProt P20138 18-364); test: flow cytometry on transfected cells, IgG
Procedure: as §1, §3

[33] = target: human CD33 T42N (human, UniProt P20138 18-364); test: flow cytometry on transfected cells, IgG
Procedure: as §1, §3

[34] = target: human CD33 Y49V (human, UniProt P20138 18-364); test: flow cytometry on transfected cells, IgG
Procedure: as §1, §3

[35] = target: human CD33 Y49G (human, UniProt P20138 18-364); test: flow cytometry on transfected cells, IgG
Procedure: as §1, §3

[36] = target: human CD33 Y49T (human, UniProt P20138 18-364); test: flow cytometry on transfected cells, IgG
Chain of human CD33 Y49T (P20138 18-364 Y49T limits assumed): as the sequence (P20138 18-364 Q204A limits assumed) above, with Y32T, A187Q counted along it
Procedure: as §1, §3

[37] = target: human CD33 Y50S (human, UniProt P20138 18-364); test: flow cytometry on transfected cells, IgG
Procedure: as §1, §3

[38] = target: human CD33 Y50Q (human, UniProt P20138 18-364); test: flow cytometry on transfected cells, IgG
Chain of human CD33 Y50Q (P20138 18-364 Y50Q limits assumed): as the sequence (P20138 18-364 Q204A limits assumed) above, with Y33Q, A187Q counted along it
Procedure: as §1, §3

[39] = target: human CD33 Y50R (human, UniProt P20138 18-364); test: flow cytometry on transfected cells, IgG
Chain of human CD33 Y50R (P20138 18-364 Y50R limits assumed): as the sequence (P20138 18-364 Q204A limits assumed) above, with Y33R, A187Q counted along it
Procedure: as §1, §3

Mean % WT Binding [1] [% WT binding]	Mean % WT Binding [2] [% WT binding]	Mean % WT Binding [3] [% WT binding]	Mean % WT Binding [4] [% WT binding]	Mean % WT Binding [5] [% WT binding]	Mean % WT Binding [6] [% WT binding]	Mean % WT Binding [7] [% WT binding]	Mean % WT Binding [8] [% WT binding]	Mean % WT Binding [9] [% WT binding]	Mean % WT Binding [10] [% WT binding]	Mean % WT Binding [11] [% WT binding]	Mean % WT Binding [12] [% WT binding]	Mean % WT Binding [13] [% WT binding]	Mean % WT Binding [14] [% WT binding]	Mean % WT Binding [15] [% WT binding]	Mean % WT Binding [16] [% WT binding]	Mean % WT Binding [17] [% WT binding]	Mean % WT Binding [18] [% WT binding]	Mean % WT Binding [19] [% WT binding]	Mean % WT Binding [20] [% WT binding]	Binder	further results
123	103	109	128	103	93.7	93.5	116	111	157	105	94.5	84.7	91	132	–	–	–	–	–	Refmab #5 (antibody, V domains shown, Full-length format is human IgG1 Fc silent (PG-LALA); also made as Fab; The alanine scan used IgG or Fab) VH: QVQLVQSGAEVKKPGASVKVSCKASGYTFTNYDINWVRQAPGQGLEWIGWIYPGDGSTKYNEKFKAKATLTADTSTSTAYMELRSLRSDDTAVYYCASGYEDAMDYWGQGTTVTVSS VL: DIQMTQSPSSLSASVGDRVTINCKASQDINSYLSWFQQKPGKAPKTLIYRANRLVDGVPSRFSGSGSGQDYTLTISSLQPEDFATYYCLQYDEFPLTFGGGTKVEIK	–
–	–	–	–	–	–	–	–	–	–	–	–	–	–	–	96.3	104	97.7	106	93.9	Refmab #5 (antibody, human IgG1, V domains shown) VH: QVQLVQSGAEVKKPGASVKVSCKASGYTFTNYDINWVRQAPGQGLEWIGWIYPGDGSTKYNEKFKAKATLTADTSTSTAYMELRSLRSDDTAVYYCASGYEDAMDYWGQGTTVTVSS VL: DIQMTQSPSSLSASVGDRVTINCKASQDINSYLSWFQQKPGKAPKTLIYRANRLVDGVPSRFSGSGSGQDYTLTISSLQPEDFATYYCLQYDEFPLTFGGGTKVEIK	Mean % WT Binding [21]: 97 % WT binding; Mean % WT Binding [22]: 62 % WT binding; Mean % WT Binding [23]: 98.2 % WT binding; Mean % WT Binding [24]: 104 % WT binding; Mean % WT Binding [25]: 94.6 % WT binding; Mean % WT Binding [26]: 4.9 % WT binding; Mean % WT Binding [27]: 53.5 % WT binding; Mean % WT Binding [28]: 31.4 % WT binding; Mean % WT Binding [29]: 2.2 % WT binding; Mean % WT Binding [30]: 4.4 % WT binding; Mean % WT Binding [31]: 58.7 % WT binding; Mean % WT Binding [32]: 43 % WT binding; Mean % WT Binding [33]: 91.1 % WT binding; Mean % WT Binding [34]: 0.9 % WT binding; Mean % WT Binding [35]: 0.8 % WT binding; Mean % WT Binding [36]: 0.5 % WT binding; Mean % WT Binding [37]: 5.3 % WT binding; Mean % WT Binding [38]: 2.9 % WT binding; Mean % WT Binding [39]: 47 % WT binding
92.2	108	98.6	98	85.6	92	99.8	94.6	92.2	114	96.6	86.4	100	105	106	–	–	–	–	–	Refmab #6 (antibody, V domains shown, Full-length format is human IgG1 Fc silent (PG-LALA); also made as Fab; The alanine scan used IgG or Fab) VH: QVQLQQPGAEVVKPGASVKMSCKASGYTFTSYYIHWIKQTPGQGLEWVGVIYPGNDDISYNQKFQGKATLTADKSSTTAYMQLSSLTSEDSAVYYCAREVRLRYFDVWGQGTTVTVSS VL: EIVLTQSPGSLAVSPGERVTMSCKSSQSVFFSSSQKNYLAWYQQIPGQSPRLLIYWASTRESGVPDRFTGSGSGTDFTLTISSVQPEDLAIYYCHQYLSSRTFGQGTKLEIK	–
–	–	–	–	–	–	–	–	–	–	–	–	–	–	–	87.9	86.1	98.9	93.1	102	Refmab #6 (antibody, human IgG1, V domains shown) VH: QVQLQQPGAEVVKPGASVKMSCKASGYTFTSYYIHWIKQTPGQGLEWVGVIYPGNDDISYNQKFQGKATLTADKSSTTAYMQLSSLTSEDSAVYYCAREVRLRYFDVWGQGTTVTVSS VL: EIVLTQSPGSLAVSPGERVTMSCKSSQSVFFSSSQKNYLAWYQQIPGQSPRLLIYWASTRESGVPDRFTGSGSGTDFTLTISSVQPEDLAIYYCHQYLSSRTFGQGTKLEIK	Mean % WT Binding [21]: 102 % WT binding; Mean % WT Binding [22]: 92.6 % WT binding; Mean % WT Binding [23]: 91 % WT binding; Mean % WT Binding [24]: 101 % WT binding; Mean % WT Binding [25]: 107 % WT binding; Mean % WT Binding [26]: 114 % WT binding; Mean % WT Binding [27]: 105 % WT binding; Mean % WT Binding [28]: 103 % WT binding; Mean % WT Binding [29]: 87.2 % WT binding; Mean % WT Binding [30]: 98.4 % WT binding; Mean % WT Binding [31]: 89.4 % WT binding; Mean % WT Binding [32]: 97.2 % WT binding; Mean % WT Binding [33]: 93.5 % WT binding; Mean % WT Binding [34]: 121 % WT binding; Mean % WT Binding [35]: 121 % WT binding; Mean % WT Binding [36]: 121 % WT binding; Mean % WT Binding [37]: 122 % WT binding; Mean % WT Binding [38]: 103 % WT binding; Mean % WT Binding [39]: 96.9 % WT binding
